For experiment [1], the system named is IL-6. Nature of the experiment: Serum amyloid A (SAA) mouse model, induction by injected IL-6. Format: in vivo. Also on record: SAA, Mean / SAA, Mouse1 / SAA, Mouse2 / SAA, Mouse3 / SAA, Mouse4 / SAA, Mouse5 / SAA, Mouse6: unit not given here. To be noted: 0.1 μg IL-6; for SAA, Mean: mean of 6 mice. On the procedure:
The in vivo efficacy of clones 68F2 and 61H7 was further investigated by measuring the ability of these antibodies to block serum amyloid A (SAA) induction in response to injected IL-6. General methods for performing this assay are set forth in WO2006/119115A2, which is hereby incorporated by reference in its entirety. […] Four hours after administration of the antibody, the mice were injected with 0.1 ug of IL-6. After a further 16 hours, blood was taken from the mice and the concentration of Serum Amyloid A was determined by ELISA. The dose responses are also graphically depicted in FIG. 13.

Experiment [2] addresses biotinylated (prokaryotic) IL-6 (Homo sapiens, UniProt P05231). Nature of the experiment: Surface plasmon resonance (Biacore), biotinylated IL-6 captured on streptavidin sensor chip. The class given is binding. To be noted: purified Fab. On the procedure:
(§1) The binding kinetics of IL-6-specific Fabs that were able to cross-compete with the B-E8 antibody was assessed using surface plasmon resonance (Biacore). Specifically, biotinylated (prokaryotic) IL-6 was captured on a streptavidin biacore sensor chip (CM5-SA) and different concentrations of purified Fabs were injected during 3 minutes following by a 5 minute wash with buffer. From the washing phase the off-rate (kd) was determined, while from the injection phase the on-rate (ka) was calculated using the concentration and off-rate as parameters. […] The binding kinetics of antagonistic purified Fabs (Table 3) and periplasmic fractions of Fab-expressing bacteria (Table 4) were also evaluated by surface plasmon resonance (Biacore) using both bacterially and eukaryotically produced human IL-6 directly coated on a CM5 chip. The Fabs tested had off-rates between 6×10^−4 and 2×10^−5 s^−1.
(In SPR one partner is held on a chip, and binding of the other changes the refractive index at the surface.)

The target in experiment [3] is T1, bacterially produced human IL-6 (Homo sapiens, UniProt P05231).
T1 construct: His
T1 sequence (P05231 30-212): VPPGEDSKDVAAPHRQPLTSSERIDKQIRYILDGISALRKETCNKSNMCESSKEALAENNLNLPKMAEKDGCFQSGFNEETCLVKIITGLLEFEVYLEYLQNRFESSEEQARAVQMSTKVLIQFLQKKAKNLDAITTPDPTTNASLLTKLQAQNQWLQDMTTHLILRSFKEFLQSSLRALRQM
Nature of the experiment: Surface plasmon resonance (Biacore), bacterially produced human IL-6 coated on CM5 chip. The class given is binding. Conditions: Bact; purified 24D10 chain-shuffled Fabs. On the procedure: as §1
(§2) VL chain shuffling was used to improve the affinity of the Fabs 17F10, 18C7, 18C9, 18C11, 20A4, 29B11, 16D2 and 28A6. In this method, the heavy chain of these clones (as a VHCH1 fragment) was reintroduced into the primary phagemid-light chain library (see Example 1). Affinity selections were performed to select for chain shuffled Fabs with an improved affinity for IL-6. The binding kinetics of chain shuffled Fabs were evaluated by surface plasmon resonance (Biacore) using both bacterially and eukaryotically produced human IL-6, and cynomolgus monkey IL-6 (Tables 5-7). The VH and VL amino acid sequences of exemplary IL-6-specific Fabs selected by the VL chain shuffling method are set forth in Table 14 below.
(§3) VH chain shuffling was also used to improve the affinity of the Fab 24D10. In this method, the light chain of 24D10 was reintroduced into the primary phagemid-heavy chain library (see Example 1) and selected using an off-rate assay. In this type of selection, the phage were allowed to bind to antigen on a substrate for 1.5 to 2 hours. At round 2, after 15 washes with PBS-Tween, an additional wash was performed with the presence of excess soluble IL-6. […] This procedure avoids re-binding of such phage to the coated target. […] The binding kinetics of chain shuffled Fabs and the benchmark antibodies, BE8 and GL18, were evaluated by surface plasmon resonance (Biacore) using both bacterially and eukaryotically produced human IL-6 (Tables 8 and 9). The VH and VL amino acid sequences of exemplary IL-6-specific Fabs selected by the VH chain shuffling method are set forth in Table 14 below. […]

For experiment [4], the target named is T2, eukaryotically produced human IL-6 (Homo sapiens, UniProt P05231).
T2 construct: purchased Humanzyme HZ-1044; host or cells: Human Embryonic kidney cells
T2 sequence (P05231 30-212): as above
Nature of the experiment: Surface plasmon resonance (Biacore), eukaryotically produced human IL-6 coated on CM5 chip. Format: binding. On the procedure: as §1, §2, §3

Where [5] appears, read: Euk IL-6, purified 24D10 chain-shuffled Fabs.

Changes are numbered by the printed parent chain.

Chain of biotinylated (prokaryotic) IL-6 (P05231 30-212): as above

B1: CNTO 136 (antibody, chains of the INN, looked up, V domains shown)
VH: EVQLVESGGGLVQPGGSLRLSCAASGFTFSPFAMSWVRQAPGKGLEWVAKISPGGSWTYYSDTVTGRFTISRDNAKNSLYLQMNSLRAEDTAVYYCARQLWGYYALDIWGQGTTVTVSS
VL: EIVLTQSPATLSLSPGERATLSCSASISVSYMYWYQQKPGQAPRLLIYDMSNLASGIPARFSGSGSGTDFTLTISSLEPEDFAVYYCMQWSGYPYTFGGGTKVEIK
Consider B1, for which, in experiment [1] (Ab dose/mouse 0.31 μg), the “SAA, Mouse1” value was found to be 158; the “SAA, Mouse2” value came out at 175; the “SAA, Mouse3” value came to 161; the “SAA, Mouse4” value came out at 134. Besides, in experiment [1] (Ab dose/mouse 0.31 μg), the “SAA, Mouse5” value was determined as 183; the “SAA, Mouse6” value is listed as 171; the “SAA, Mean” value is reported as 163.7. Moreover, in experiment [1] (Ab dose/mouse 1.25 μg), the “SAA, Mouse1” value was found to be 107; the “SAA, Mouse2” value is recorded as 54; the “SAA, Mouse3” value stood at 67; the “SAA, Mouse4” value was 56. In addition, in experiment [1] (Ab dose/mouse 1.25 μg), the “SAA, Mouse5” value worked out at 62; the “SAA, Mouse6” value was 71; the “SAA, Mean” value is listed as 69.5. Moreover, in experiment [1] (Ab dose/mouse 5 μg), the “SAA, Mouse1” value was 80; the “SAA, Mouse2” value is on record as 80; the “SAA, Mouse3” value was 45; the “SAA, Mouse4” value is on record as 55. Further, in experiment [1] (Ab dose/mouse 5 μg), the “SAA, Mouse5” value is reported as 70; the “SAA, Mouse6” value was found to be 84; the “SAA, Mean” value amounted to 69.0.

B2: 20A4: antagonistic IL-6-specific Fab clone, parental of 68F2 (antibody, listed as Lama glama, V domains shown)
VH: EVQLQESGPGLVKPSQTLSLTCTVSGGSITTRYYAWSWIRQPPGKGLEWMGVIDYDGDTYYSPSLKSRTSISWDTSKNQFSLQLSSVTPEDTAVYYCARDPDVVTGFHYDYWGQGTQVTVSS
VL: ALNFMLTQPPSVSGTLGKTVTISCAGTSSDIGGYNYVSWYQQLPGTAPKLLIHRVSTRASGIPDRFSGSKSGNTASLTISGLRSEDEANYYCASYRNFNNAVFGGGTQLTVLG
In experiment [2], B2 gave a KA of 1.72e+08 M⁻¹, an Rmax of 48.2 RU, a ka of 288000 M⁻¹ s⁻¹ and a kd of 0.00168 s⁻¹.

B3: 24C9: antagonistic IL-6-specific Fab clone from immunized llama (antibody, listed as Lama glama, V domains shown)
VH: QVQLVESGGGLVQPGGSLRLSCAASGFTFSSYRMYWVRQPPGKGLEWVSAISAGGGSTYYGDSVKGRFTISRDNAKNTVYLQMNSLKPEDTALYYCKKSTWADGESDYWGQGTQVTVSS
VL: QTVVTQEPSLSVSPGGTVTLTCGLSSGSVTASNYPGWFQQTPGQAPRALIYSTNDRHSGVPSRFSGSISGNKAALTITGAQPEDEADYYCALDIGDITEFGGGTHLTVLG
In the case of B3, in experiment [2], the KA was determined as 1.51e+09 M⁻¹, the Rmax is 38.1 RU, the ka came out at 133000 M⁻¹ s⁻¹ and the kd is 8.77e-05 s⁻¹. Further, in experiment [2], the “off-rates (range)” value is recorded as ~10^−5 s^−1. Further, the Kd in experiment [2] (read-out: affinities) worked out at 0.66 nM.

B4: 24E9: antagonistic IL-6-specific Fab clone from immunized llama (antibody, listed as Lama glama, V domains shown)
VH: EVQLVESGGGLVQPGGSLRLSCAASGFTFSTYAMSWVRQAPGKGPEWVSRISSGGGSTNYADSVKGRFTISRDNAKKTLYLQMKSLKPEDTAVYYCANRAGWGMGDYWGQGTQVTVSS
VL: B3 VL
On to B4, for which, in experiment [2], the KA was determined as 8.38e+08 M⁻¹, the Rmax was found to be 41 RU, the ka is 117000 M⁻¹ s⁻¹ and the kd stood at 0.000139 s⁻¹.

B5: 24D10: antagonistic IL-6-specific Fab clone, parental of 61H7 (antibody, listed as Lama glama, V domains shown)
VH: B4 VH with E1Q, V2L, L4V, T31S, N59S, K77N, K84N
VL: B3 VL
For the molecule B5, in experiment [3], the ka stood at 210000 M⁻¹ s⁻¹ and the kd turned out to be 0.0001 s⁻¹. In experiment [4] (setting [5]), this molecule returned a ka of 250000 M⁻¹ s⁻¹ and a kd of 0.0001 s⁻¹. In addition, the binding in experiment [4] (periplasmic fractions ('pur' = purified Fab), IL-6 form not stated) is 301. In experiment [2], the KA stood at 3.7e+09 M⁻¹, the Rmax is on record as 40.6 RU, the ka is 62700 M⁻¹ s⁻¹ and the kd was 1.69e-05 s⁻¹. Besides, the “off-rates (range)” value in experiment [2] was ~10^−5 s^−1.

B6: 18C11: antagonistic IL-6-specific Fab clone from immunized llama (antibody, listed as Lama glama, V domains shown)
VH: EVQLVESGGGLVQPGGSLRLSCAASGFTFSSYAMSWVRQAPGKGLEWVSAINSGGGSTSYADSVKGRFTISRDNAKNTLYLQMNSLKPEDTAVYYCAKEGDTGWKDPMYDYWGQGTQVTVSS
VL: QSVVTQPSALSVTLGQTAKITCQGGGLRSSYAHWYQQKPGQAPVLVIYDDDSRPSGIPERFSGSSSGGRATLTISGAQAEDEGDYYCQSADSSGNAAVFGGGTHLTVLG
In experiment [2], B6 had a KA of 7.05e+07 M⁻¹, an Rmax of 22.1 RU, a ka of 55200 M⁻¹ s⁻¹ and a kd of 0.000784 s⁻¹.

B7: 18C9: antagonistic IL-6-specific Fab clone from immunized llama (antibody, listed as Lama glama, V domains shown)
VH: B6 VH with S31R, Y32N, D101Y
VL: LNFMLTQPSALSVTLGQTAKITCQGGSLGSRYAHWYQQKPGQAPVLVIYDDDSRPSGIPERFSGSSSGGRATLTISGAQAEDDGDYYCQSADSSGNASVFGGGTHLTVLG
In the case of B7, in experiment [2], the KA was determined as 4.67e+07 M⁻¹, the Rmax was 49.9 RU, the ka was determined as 55600 M⁻¹ s⁻¹ and the kd came to 0.00119 s⁻¹.

B8: 18F8: antagonistic IL-6-specific Fab clone from immunized llama (antibody, listed as Lama glama, V domains shown)
VH: B6 VH with S31R, Y32N, D101Y
VL: QSALTQPSALSVTLGQTAKITCQGGSLGSRYAHWYQQKPGQAPVLVIYDDDSRPSGIPERFSGSSSGGRATLTISGAQAEDEGDYYCQSADTSEHIVFGGGTHLTVLG
With B8, in experiment [2], the KA amounted to 6.18e+07 M⁻¹, the Rmax was found to be 51.5 RU, the ka was determined as 48400 M⁻¹ s⁻¹ and the kd worked out at 0.000784 s⁻¹.

B9: 28C6: antagonistic IL-6-specific Fab clone from immunized llama (antibody, listed as Lama glama, V domains shown)
VH: QVQLVESGGGLVQPGGSLRLSCAASGFTFSNYYMTWVRQAPGKGLEWVSSIYSFSGDTAYADSVKGRFTISRDNAKNTLYLQMNKLKSEDTAVYYCTRDLGGVVVTANGYDYWGQGTQVTVSS
VL: DIVMTQTPSSLSASLGDRVTITCQASQSISTELSWYQQKPGQTPKLLIYGASRLQTGVPARFSGSGSGTSFTLTISGLEAEDLATYYCLQDYSWPYSFGSGTRL
In experiment [2], B9 yielded a KA of 4.04e+07 M⁻¹, an Rmax of 22.6 RU, a ka of 101000 M⁻¹ s⁻¹ and a kd of 0.0025 s⁻¹.

For the origin of these results see patent US11827701B2, “IL-6 binding molecules” (argenx BV, priority 2012, dated 2023).
